# Publication PMC3897701, “Human and Mouse CD137 Have Predominantly Different Binding CRDs to Their Respective Ligands” (PLoS ONE, 2014)
# B1: mouse CD137 extracellular domain with hFc tail (mE-hFc) (Fc fusion, UniProt P20334 24-185, looked up)
# chain: VQNSCDNCQPGTFCRKYNPVCKSCPPSTFSSIGGQPNCNICRVCAGYFRFKKFCSSTHNAECECIEGFHCLGPQCTRCEKDCRPGQELTKQGCKTCSLGTFNDQNGTGVCRPWTNCSLDGRSVLKTGTTEKDVVCGPPVVSFSPSTTISVTPEGGPGGHSLQ
# notes: signal peptide in the construct; mouse CD137 (4-1BB), entire extracellular region with its own leader (1-23 aa), CRDI-IV and the hinge-like region (STP), residues 1-185; Runs as a dimer on SDS-PAGE without 2-ME; also called mE-Fc; mCD137-hFc; source: COS-7, transfected (DEAE dextran); expression supernatant, and purified (rProtein A Sepharose); not shown: Fc (human IgG1 hinge-CH2-CH3), …
# Molecular target: T1, hCD137L-mFc (human CD137L extracellular domain and mouse IgG-Fc fusion protein) (human, UniProt P41273 50-254)
# T1 construct: human CD137 ligand (4-1BBL), extracellular domain; a silent g to c change at base 405 destroys an AgeI site without any amino acid changed; also called hL; hL-mFc; source: COS-7, transfected, purified (rProtein A Sepharose)
# T1 sequence (P41273 50-254): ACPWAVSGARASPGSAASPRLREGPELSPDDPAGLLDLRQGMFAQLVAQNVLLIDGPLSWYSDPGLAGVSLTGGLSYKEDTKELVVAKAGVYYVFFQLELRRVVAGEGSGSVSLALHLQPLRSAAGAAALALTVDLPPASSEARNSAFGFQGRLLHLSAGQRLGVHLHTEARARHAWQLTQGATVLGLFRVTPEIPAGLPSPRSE
# Assay: ELISA; purified hCD137L-mFc coated at 1 µg/ml; expression supernatants of human or mouse CD137-hFc fragments added; goat anti-human IgG-HRP; positive if P/N>2.1
# Conditions: one partner purified
binder,measurement,value
B1,binding relative to that of human CD137,~30%
